Columns and labels:
[1] = target: human FcγRIIa R (allotype R131) extracellular domain (human) (UniProt P12318); assay: SPR Biacore 8K+; KD of G1d divided by KD of this antibody
[2] = target: human FcγRIIa R (allotype R131) extracellular domain (human) (UniProt P12318); assay: SPR Biacore 8K+; KD for FcγRIIb divided by KD for this FcγR
[3] = target: human FcγRIIa R (allotype R131) extracellular domain (human) (UniProt P12318); assay: SPR Biacore 8K+, 25 C, antibody captured, FcγR as analyte, 1:1 Langmuir model

Sequence of EGL-GASDALIE (H240-GASDALIE/L73-k0) (antibody) (heavy): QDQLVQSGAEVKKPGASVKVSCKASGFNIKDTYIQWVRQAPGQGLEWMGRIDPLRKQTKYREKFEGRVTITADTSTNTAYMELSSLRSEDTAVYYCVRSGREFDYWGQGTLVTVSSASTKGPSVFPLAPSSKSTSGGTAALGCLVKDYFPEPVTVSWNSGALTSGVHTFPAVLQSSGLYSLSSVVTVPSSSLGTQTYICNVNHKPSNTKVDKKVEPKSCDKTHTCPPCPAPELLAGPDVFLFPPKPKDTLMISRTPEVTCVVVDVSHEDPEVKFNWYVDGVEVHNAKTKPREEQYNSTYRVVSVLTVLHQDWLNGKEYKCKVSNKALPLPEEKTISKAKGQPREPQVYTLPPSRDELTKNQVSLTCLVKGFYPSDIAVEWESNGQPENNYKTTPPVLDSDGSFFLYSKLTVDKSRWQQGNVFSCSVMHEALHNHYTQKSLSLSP
Sequence of EGL-GASDALIE (H240-GASDALIE/L73-k0) (antibody) (light): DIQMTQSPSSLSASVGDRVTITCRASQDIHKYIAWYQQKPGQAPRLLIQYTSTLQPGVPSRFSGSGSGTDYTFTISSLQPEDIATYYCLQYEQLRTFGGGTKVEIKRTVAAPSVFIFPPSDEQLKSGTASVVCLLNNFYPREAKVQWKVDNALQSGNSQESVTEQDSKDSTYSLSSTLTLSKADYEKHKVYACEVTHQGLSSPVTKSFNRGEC
Sequence of EGL-afucosyl (H240-G1d/L73-k_glycomab) (antibody) (heavy): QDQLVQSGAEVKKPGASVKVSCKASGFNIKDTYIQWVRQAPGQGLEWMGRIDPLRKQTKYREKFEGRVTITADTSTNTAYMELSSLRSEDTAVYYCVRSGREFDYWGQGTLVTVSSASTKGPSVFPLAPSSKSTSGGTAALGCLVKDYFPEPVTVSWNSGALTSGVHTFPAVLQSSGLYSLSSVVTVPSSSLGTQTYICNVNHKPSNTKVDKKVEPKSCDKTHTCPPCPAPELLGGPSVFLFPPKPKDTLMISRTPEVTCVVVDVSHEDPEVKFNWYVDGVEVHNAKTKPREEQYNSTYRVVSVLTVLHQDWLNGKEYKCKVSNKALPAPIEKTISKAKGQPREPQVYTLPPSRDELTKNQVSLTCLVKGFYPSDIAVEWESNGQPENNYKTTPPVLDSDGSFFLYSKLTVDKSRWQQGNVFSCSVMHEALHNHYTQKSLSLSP
Sequence of EGL-afucosyl (H240-G1d/L73-k_glycomab) (antibody) (VL): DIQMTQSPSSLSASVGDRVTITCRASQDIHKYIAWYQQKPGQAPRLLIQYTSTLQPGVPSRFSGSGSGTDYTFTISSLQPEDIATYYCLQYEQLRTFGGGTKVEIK
Sequence of human FcγRIIa R (allotype R131) extracellular domain (human) (P12318 34-217 H167R): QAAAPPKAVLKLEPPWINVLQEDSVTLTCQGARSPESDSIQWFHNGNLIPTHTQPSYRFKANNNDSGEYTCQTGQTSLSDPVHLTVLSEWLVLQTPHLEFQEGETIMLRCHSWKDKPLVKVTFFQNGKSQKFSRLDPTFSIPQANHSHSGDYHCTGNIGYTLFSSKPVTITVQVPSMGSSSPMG

Relative value to KD between G1d and hFcγRs [1] | A/I ratio (KD for FcγRIIb divided by KD for each FcγR) [2] | Kd [3] | Substance
1.8 times | 6 | 0.946 µM | EGL-afucosyl (H240-G1d/L73-k_glycomab) (antibody)
10.3 times | 16.5 | 0.161 µM | EGL-GASDALIE (H240-GASDALIE/L73-k0) (antibody)
